The experiment addresses 天然TSLP. The experiment is described as follows: cell-based or functional assay.

Tezepelumab (antibody) had an IC50, inhibition of natural TSLP-induced STAT5 phosphorylation in SW756-STAT5-Luciferase reporter cells of 1.45 ng/mL.

These data come from patent publication CN114028562A.
